This is an account of results in PMC9723946 (The Journal of Biological Chemistry, 2022).

Like-named read-outs stand apart in the source and are kept apart here. Where no end group is shown, it is not given here. Ahx = NCCCCCC(=O)O

Assay [1] has as its target T1, His-tagged G3BP1 NTF2 (peptide arrays) (human, UniProt Q13283 1-139). The assay is described as follows: peptide or protein array.
Assay [2] deals with T1, His-tagged G3BP1 NTF2 (peptide arrays). The assay is described as follows: peptide or protein array. This is another data set of the same source.
In assay [3] the target is G3BP1 NTF2-like domain (1-139) S38T (human, UniProt Q13283 1-139, S38T). The assay is described as follows: fluorescence polarisation.
Assay [4] addresses G3BP1 NTF2-like domain (1-139) S38A (human, UniProt Q13283 1-139, S38A). Nature of the assay: fluorescence polarisation. (Polarisation of emitted light reports the rotation of a fluorescent probe.)
For assay [5], the target named is G3BP1 NTF2-like domain (1-139) S38G (human, UniProt Q13283 1-139, S38G). Nature of the assay: fluorescence polarisation.
The target in assay [6] is G3BP1 NTF2-like domain (1-139) F33W (human, UniProt Q13283 1-139, F33W). Nature of the assay: fluorescence polarisation.
The target in assay [7] is G3BP1 NTF2-like domain (1-139) F124W (human, UniProt Q13283 1-139, F124W). The assay is described as follows: fluorescence polarisation.
The target in assay [8] is G3BP1 NTF2-like domain (1-139) F15/124W (human, UniProt Q13283 1-139, F15W | F124W). The assay is described as follows: fluorescence polarisation.
Assay [9] concerns the target G3BP1 NTF2-like domain (1-139) F15W (human, UniProt Q13283 1-139, F15W). The assay is described as follows: fluorescence polarisation.
The target in assay [10] is G3BP1 NTF2-like domain (1-139) TripleW (F15W/F33W/F124W) (human, UniProt Q13283 1-139, F15W | F33W | F124W). Nature of the assay: fluorescence polarisation.
The target in assay [11] is G3BP1 NTF2-like domain (1-139), WT (human, UniProt Q13283 1-139). The assay is described as follows: fluorescence polarisation.
In assay [12] the target is G3BP1 NTF2-like domain (1-139) F15/33W (human, UniProt Q13283 1-139, F15W | F33W). Nature of the assay: fluorescence polarisation.
Assay [13] deals with G3BP1 NTF2-like domain (1-139) F33/124W (human, UniProt Q13283 1-139, F33W | F124W). The assay is described as follows: fluorescence polarisation.
Sequence of G3BP1 NTF2-like domain (1-139) F33/124W (Q13283 1-139 F33W/F124W): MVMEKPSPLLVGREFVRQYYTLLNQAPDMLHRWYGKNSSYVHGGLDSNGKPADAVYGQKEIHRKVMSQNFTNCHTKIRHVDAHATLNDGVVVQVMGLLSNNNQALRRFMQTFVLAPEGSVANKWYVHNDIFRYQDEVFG

T1 sequence (Q13283 1-139): as the sequence (Q13283 1-139 F33W/F124W) above, with W33F, W124F counted along it
Sequence of G3BP1 NTF2-like domain (1-139) S38A (Q13283 1-139 S38A): as the sequence (Q13283 1-139 F33W/F124W) above, with W33F, S38A, W124F counted along it
Sequence of G3BP1 NTF2-like domain (1-139) F15W (Q13283 1-139 F15W): as the sequence (Q13283 1-139 F33W/F124W) above, with F15W, W33F, W124F counted along it
Sequence of G3BP1 NTF2-like domain (1-139) S38T (Q13283 1-139 S38T): as the sequence (Q13283 1-139 F33W/F124W) above, with W33F, S38T, W124F counted along it
Sequence of G3BP1 NTF2-like domain (1-139) F15/124W (Q13283 1-139 F15W/F124W): as the sequence (Q13283 1-139 F33W/F124W) above, with F15W, W33F counted along it
Sequence of G3BP1 NTF2-like domain (1-139) F15/33W (Q13283 1-139 F15W/F33W): as the sequence (Q13283 1-139 F33W/F124W) above, with F15W, W124F counted along it
Sequence of G3BP1 NTF2-like domain (1-139) F33W (Q13283 1-139 F33W): as the sequence (Q13283 1-139 F33W/F124W) above, with W124F counted along it
Sequence of G3BP1 NTF2-like domain (1-139), WT (Q13283 1-139): as the sequence (Q13283 1-139 F33W/F124W) above, with W33F, W124F counted along it
Sequence of G3BP1 NTF2-like domain (1-139) F124W (Q13283 1-139 F124W): as the sequence (Q13283 1-139 F33W/F124W) above, with W33F counted along it
Sequence of G3BP1 NTF2-like domain (1-139) TripleW (F15W/F33W/F124W) (Q13283 1-139 F15W/F33W/F124W): as the sequence (Q13283 1-139 F33W/F124W) above, with F15W counted along it
Sequence of G3BP1 NTF2-like domain (1-139) S38G (Q13283 1-139 S38G): as the sequence (Q13283 1-139 F33W/F124W) above, with W33F, S38G, W124F counted along it

B1: Caprin1 peptide Y370F (SPOT array) (peptide)
peptide: QGPFNFIQDSMLDFENQTLD
B1: the binding result in assay [1] is “binds”.

B2: Caprin1 peptide N371T (SPOT array) (peptide)
peptide: QGPYTFIQDSMLDFENQTLD
Regarding B2, the binding result in assay [1] is recorded as “binds”.

B3: Caprin1 peptide N371C (SPOT array) (peptide)
peptide: QGPYCFIQDSMLDFENQTLD
Consider B3, for which the binding result in assay [1] is reported as “binds”.

B4: Caprin1 peptide N371E (SPOT array) (peptide)
peptide: QGPYEFIQDSMLDFENQTLD
For the molecule B4, the binding result in assay [1] is “binds”.

B5: USP10 peptide F13Y (SPOT array) (peptide)
peptide: HSPQYIFGDYSPDEFNQFFV
Turning to B5, the binding result in [2] was “binds”.

B6: Caprin1 peptide N371R (SPOT array) (peptide)
peptide: QGPYRFIQDSMLDFENQTLD
As to B6, the binding result in assay [1] was “binds”.

B7: Caprin1 peptide N371I (SPOT array) (peptide)
peptide: QGPYIFIQDSMLDFENQTLD
B7: the binding result in assay [1] was “binds”.

B8: Caprin1 peptide S376C (SPOT array) (peptide)
peptide: QGPYNFIQDCMLDFENQTLD
Regarding B8, the binding result in assay [1] is on record as “binds”.

B9: Caprin1 peptide N371V (SPOT array) (peptide)
peptide: QGPYVFIQDSMLDFENQTLD
As to B9, the binding result in [1] is reported as “binds”.

B10: Caprin1 peptide D375E (SPOT array) (peptide)
peptide: QGPYNFIQESMLDFENQTLD
Regarding B10, the binding result in assay [1] is on record as “binds”.

B11: Caprin1 peptide I373F (SPOT array) (peptide)
peptide: QGPYNFFQDSMLDFENQTLD
In the case of B11, the binding result in assay [1] is given as “binds”.

B12: Caprin1 peptide N371M (SPOT array) (peptide)
peptide: QGPYMFIQDSMLDFENQTLD
B12: the binding result in assay [1] is listed as “binds”.

B13: USP10 peptide F13I (SPOT array) (peptide)
peptide: HSPQYIFGDISPDEFNQFFV
As to B13, the binding result in assay [2] is given as “binds”.

B14: Caprin1 peptide I373L (SPOT array) (peptide)
peptide: QGPYNFLQDSMLDFENQTLD
With B14, the binding result in assay [1] is given as “binds”.

B15: Caprin1-derived dodecamer reporter peptide F*-YNFIQDSMLDFE (peptide)
peptide: {fluorescein-Ahx}-YNFIQDSMLDFE
With B15, the Kd in assay [3] stood at 11.8 µM; in assay [4], 7.3 µM; in assay [5], 10.5 µM; in assay [6] it was 79.3 µM; in assay [7] it was 1.7 µM; in [8] it was 14.4 µM. For the same molecule, the Kd in assay [9] worked out at 9.3 µM; in assay [10], 240 µM; in assay [11], 1.7 µM; in [12], 256 µM; in assay [13], 133 µM.

B16: USP10 peptide F13V (SPOT array) (peptide)
peptide: HSPQYIFGDVSPDEFNQFFV
Turning to B16, the binding result in [2] is on record as “binds”.

B17: Caprin1 peptide N371K (SPOT array) (peptide)
peptide: QGPYKFIQDSMLDFENQTLD
Consider B17, for which, in assay [1], the binding result is given as “binds”.

B18: Caprin1 peptide N371F (SPOT array) (peptide)
peptide: QGPYFFIQDSMLDFENQTLD
On to B18, for which, in assay [1], the binding result is recorded as “binds”.

B19: Caprin1 peptide N371L (SPOT array) (peptide)
peptide: QGPYLFIQDSMLDFENQTLD
For B19, the binding result in assay [1] is “binds”.

B20: Caprin1 peptide N371S (SPOT array) (peptide)
peptide: QGPYSFIQDSMLDFENQTLD
On to B20, for which the binding result in assay [1] is reported as “binds”.

B21: USP10 peptide F13L (SPOT array) (peptide)
peptide: HSPQYIFGDLSPDEFNQFFV
With B21, in assay [2], the binding result is “binds”.

B22: Caprin1 peptide N371Y (SPOT array) (peptide)
peptide: QGPYYFIQDSMLDFENQTLD
Take B22: the binding result in [1] was “binds”.

B23: Caprin1 peptide N371H (SPOT array) (peptide)
peptide: QGPYHFIQDSMLDFENQTLD
On to B23, for which the binding result in assay [1] is reported as “binds”.

B24: Caprin1 peptide M377Y (SPOT array) (peptide)
peptide: QGPYNFIQDSYLDFENQTLD
Consider B24, for which, in assay [1], the binding result is reported as “binds”.

B25: native USP10 peptide HSPQYIFGDFSPDEFNQFFV (SPOT array) (peptide)
peptide: HSPQYIFGDFSPDEFNQFFV
Turning to B25, the binding result in assay [2] is listed as “binds”.

B26: Caprin1 peptide M377F (SPOT array) (peptide)
peptide: QGPYNFIQDSFLDFENQTLD
On to B26, for which, in assay [1], the binding result is recorded as “binds”.

B27: USP10 peptide G11A (SPOT array) (peptide)
peptide: HSPQYIFADFSPDEFNQFFV
In the case of B27, in assay [2], the binding result was “binds”.

B28: Caprin1 peptide N371Q (SPOT array) (peptide)
peptide: QGPYQFIQDSMLDFENQTLD
B28: the binding result in assay [1] is “binds”.

B29: USP10 peptide F13W (SPOT array) (peptide)
peptide: HSPQYIFGDWSPDEFNQFFV
As to B29, in assay [2], the binding result was “binds”.

B30: Caprin1 peptide N371W (SPOT array) (peptide)
peptide: QGPYWFIQDSMLDFENQTLD
As to B30, in assay [1], the binding result is on record as “binds”.

B31: native Caprin1 peptide QGPYNFIQDSMLDFENQTLD (SPOT array) (peptide)
peptide: QGPYNFIQDSMLDFENQTLD
With B31, the binding result in [1] was “binds”.

B32: Caprin1 peptide L378I (SPOT array) (peptide)
peptide: QGPYNFIQDSMIDFENQTLD
As for B32, the binding result in assay [1] is listed as “binds”.

B33: Caprin1 peptide N371D (SPOT array) (peptide)
peptide: QGPYDFIQDSMLDFENQTLD
As for B33, the binding result in [1] was “binds”.

As a reminder, the Kd is the concentration at which binding is half-saturated. Higher therefore signals lower affinity.
